From PMC2885444

Assays:
[1] = target: CHD4 PHD2 finger E447A (UniProt Q14839); assay: NMR titration
[2] = target: CHD4 PHD2 finger C460W (UniProt Q14839); assay: NMR titration
[3] = target: CHD4 PHD2 finger, wild type (UniProt Q14839); assay: other fluorescence titration + NMR titration
[4] = target: CHD4 PHD2 finger, wild type (UniProt Q14839); assay: other fluorescence titration

Substance | Kd [3] [µM] | Kd [4] [µM] | further results
unmodified H3 peptide (12-mer histone tail peptide) |  |  | Kd [1]: 900 µM; Kd [2]: 3700 µM
H3K4me1 peptide (affinity measurements) | 300 |  | 
H3K9me3 peptide (12-mer histone tail peptide) |  | 0.9 | 
H3K4me2 peptide (affinity measurements) | 1000 |  | 
histone H3 peptide in which the primary amino group of Ala1 was acetylated | 400 |  | 
H3K9ac peptide (20-mer) |  | 0.6 | 
